Test results published in patent US20200317768A1 (published 2020).
Changes are numbered by the printed parent chain.

T1: cynomolgus monkey FcγRIIa2 extracellular domain, C-terminal His-tag (cynomolgus monkey)
T1 construct: also called cyno FcγRIIa2; cynoFcgRIIa2
T1 chain: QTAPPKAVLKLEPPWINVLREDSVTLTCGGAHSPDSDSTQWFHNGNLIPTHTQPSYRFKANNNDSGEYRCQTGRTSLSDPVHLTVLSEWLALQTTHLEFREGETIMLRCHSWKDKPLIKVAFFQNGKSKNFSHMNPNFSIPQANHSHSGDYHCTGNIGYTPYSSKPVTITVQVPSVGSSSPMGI

T2: human FcγRIIaR extracellular domain, C-terminal His-tag (human, UniProt P12318 34-217)
T2 construct: also called human FcγRIIa (type R); FcgRIIaR
T2 chain: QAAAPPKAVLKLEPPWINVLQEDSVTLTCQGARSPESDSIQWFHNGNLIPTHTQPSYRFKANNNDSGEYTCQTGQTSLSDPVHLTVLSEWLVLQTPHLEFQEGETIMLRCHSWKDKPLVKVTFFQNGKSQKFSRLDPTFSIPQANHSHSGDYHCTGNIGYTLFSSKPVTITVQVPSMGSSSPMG

T3: cynomolgus monkey FcγRIIa3 extracellular domain, C-terminal His-tag (cynomolgus monkey)
T3 construct: also called cyno FcγRIIa3; cynoFcgRIIa3
T3 chain: T1 chain with K127I, N130K, H133P, Q142R

T4: human FcγRIIaH extracellular domain, C-terminal His-tag (human, UniProt P12318 34-217)
T4 construct: also called human FcγRIIa (type H); FcgRIIaH
T4 sequence: T2 chain with R134H

T5: cynomolgus monkey FcγRIIa1 extracellular domain, C-terminal His-tag (cynomolgus monkey)
T5 construct: also called cyno FcγRIIa1; cynoFcgRIIa1
T5 chain: T1 chain with T95P, A121T, K127I, S128A, N130K, N135D, Q142R

T6: cynomolgus monkey FcγRIIb extracellular domain, C-terminal His-tag (cynomolgus monkey)
T6 construct: also called cyno FcγRIIb; cynoFcγRIIb
T6 chain: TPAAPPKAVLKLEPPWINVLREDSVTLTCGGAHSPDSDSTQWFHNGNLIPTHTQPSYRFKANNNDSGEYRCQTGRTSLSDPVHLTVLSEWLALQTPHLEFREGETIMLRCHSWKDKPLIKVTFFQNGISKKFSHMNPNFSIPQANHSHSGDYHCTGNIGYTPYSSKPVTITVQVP

T7: cynomolgus monkey FcγRIIIaS extracellular domain, C-terminal His-tag (cynomolgus monkey, UniProt Q8SPW2 21-206 at identity 1.00))
T7 construct: also called cyno FcγRIIIaS; cynoFcγRIIIaS
T7 chain: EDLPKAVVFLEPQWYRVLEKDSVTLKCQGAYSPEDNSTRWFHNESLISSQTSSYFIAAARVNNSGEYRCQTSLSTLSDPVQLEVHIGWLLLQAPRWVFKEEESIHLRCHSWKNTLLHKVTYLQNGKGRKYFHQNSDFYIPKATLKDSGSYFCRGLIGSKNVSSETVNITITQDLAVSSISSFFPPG

B1: MS_M103205H795-SG1/M103202L889-SK1 (antibody, human IgG1, kappa)
heavy: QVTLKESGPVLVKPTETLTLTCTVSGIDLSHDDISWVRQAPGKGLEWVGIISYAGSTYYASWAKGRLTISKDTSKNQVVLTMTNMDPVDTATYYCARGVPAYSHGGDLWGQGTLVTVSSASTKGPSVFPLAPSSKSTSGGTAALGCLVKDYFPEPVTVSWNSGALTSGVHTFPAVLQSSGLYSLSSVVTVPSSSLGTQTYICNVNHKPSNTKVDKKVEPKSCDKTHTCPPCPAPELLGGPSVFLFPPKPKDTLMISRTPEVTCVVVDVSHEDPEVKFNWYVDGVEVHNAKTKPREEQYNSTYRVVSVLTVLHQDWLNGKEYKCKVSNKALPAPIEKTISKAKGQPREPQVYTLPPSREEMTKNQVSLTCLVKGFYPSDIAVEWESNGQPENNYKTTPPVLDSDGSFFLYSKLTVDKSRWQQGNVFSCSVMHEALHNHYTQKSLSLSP
light: DIVMTQSPATLSLSPGERATLSCTSSQSVYHANWLSWFQQKPGQPPKLLIYWASTLAYGVPSRFSGSGSGTDFTLTISSLQPEDAATYYCAGGYGGGRYAFGQGTKVEIKRTVAAPSVFIFPPSDEQLKSGTASVVCLLNNFYPREAKVQWKVDNALQSGNSQESVTEQDSKDSTYSLSSTLTLSKADYEKHKVYACEVTHQGLSSPVTKSFNRGEC
notes: Parent of the Fc variants; also called MS1032LO06-SG1
B2: M103205H795-MY049/M103202L889-SK1 (antibody, human IgG1, kappa)
heavy: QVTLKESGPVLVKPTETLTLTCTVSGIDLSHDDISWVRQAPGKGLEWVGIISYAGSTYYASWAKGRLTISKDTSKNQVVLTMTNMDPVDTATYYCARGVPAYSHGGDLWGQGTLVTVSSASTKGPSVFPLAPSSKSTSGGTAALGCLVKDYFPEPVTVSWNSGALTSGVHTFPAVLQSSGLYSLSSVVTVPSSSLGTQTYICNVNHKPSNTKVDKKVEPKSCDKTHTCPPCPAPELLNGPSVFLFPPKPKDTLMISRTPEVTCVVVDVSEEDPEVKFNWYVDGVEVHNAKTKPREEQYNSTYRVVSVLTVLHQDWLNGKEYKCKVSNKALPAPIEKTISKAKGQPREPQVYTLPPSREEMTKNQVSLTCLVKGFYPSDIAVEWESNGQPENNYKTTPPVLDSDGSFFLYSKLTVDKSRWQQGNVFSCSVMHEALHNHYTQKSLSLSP
light: B1 light
notes: Substitutions introduced into M103205H795-SG1; expressed with M103202L889-SK1 as light chain
B3: M103205H795-MY051/M103202L889-SK1 (antibody, human IgG1, kappa)
heavy: QVTLKESGPVLVKPTETLTLTCTVSGIDLSHDDISWVRQAPGKGLEWVGIISYAGSTYYASWAKGRLTISKDTSKNQVVLTMTNMDPVDTATYYCARGVPAYSHGGDLWGQGTLVTVSSASTKGPSVFPLAPSSKSTSGGTAALGCLVKDYFPEPVTVSWNSGALTSGVHTFPAVLQSSGLYSLSSVVTVPSSSLGTQTYICNVNHKPSNTKVDKKVEPKSCDKTHTCPPCPAPELLNGPSVFLFPPKPKDTLMISRTPEVTCVVVDVSEEDGEVKFNWYVDGVEVHNAKTKPREEQYNSTYRVVSVLTVLHQDWLNGKEYKCKVSNKALPAPIEKTISKAKGQPREPQVYTLPPSREEMTKNQVSLTCLVKGFYPSDIAVEWESNGQPENNYKTTPPVLDSDGSFFLYSKLTVDKSRWQQGNVFSCSVMHEALHNHYTQKSLSLSP
light: B1 light
notes: as for B2
B4: M103205H795-MY050/M103202L889-SK1 (antibody, human IgG1, kappa)
heavy: B3 heavy with S269A, G273P
light: B1 light
notes: as for B2
B5: M103205H795-MY001/M103202L889-SK1 (antibody, human IgG1, kappa)
heavy: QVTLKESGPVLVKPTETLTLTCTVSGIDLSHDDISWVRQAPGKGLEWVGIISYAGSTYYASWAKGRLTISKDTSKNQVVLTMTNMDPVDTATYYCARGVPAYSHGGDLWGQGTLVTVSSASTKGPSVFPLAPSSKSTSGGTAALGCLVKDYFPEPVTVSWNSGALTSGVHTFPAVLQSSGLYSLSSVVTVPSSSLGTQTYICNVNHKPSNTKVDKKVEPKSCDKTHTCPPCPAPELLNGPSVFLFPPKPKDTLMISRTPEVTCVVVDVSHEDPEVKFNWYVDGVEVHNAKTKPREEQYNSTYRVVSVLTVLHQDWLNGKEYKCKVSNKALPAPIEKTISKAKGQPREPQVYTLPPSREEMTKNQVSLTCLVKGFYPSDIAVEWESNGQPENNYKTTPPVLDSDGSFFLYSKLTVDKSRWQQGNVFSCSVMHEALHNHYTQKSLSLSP
light: B1 light
notes: as for B2
B6: M103205H795-MY048/M103202L889-SK1 (antibody, human IgG1, kappa)
heavy: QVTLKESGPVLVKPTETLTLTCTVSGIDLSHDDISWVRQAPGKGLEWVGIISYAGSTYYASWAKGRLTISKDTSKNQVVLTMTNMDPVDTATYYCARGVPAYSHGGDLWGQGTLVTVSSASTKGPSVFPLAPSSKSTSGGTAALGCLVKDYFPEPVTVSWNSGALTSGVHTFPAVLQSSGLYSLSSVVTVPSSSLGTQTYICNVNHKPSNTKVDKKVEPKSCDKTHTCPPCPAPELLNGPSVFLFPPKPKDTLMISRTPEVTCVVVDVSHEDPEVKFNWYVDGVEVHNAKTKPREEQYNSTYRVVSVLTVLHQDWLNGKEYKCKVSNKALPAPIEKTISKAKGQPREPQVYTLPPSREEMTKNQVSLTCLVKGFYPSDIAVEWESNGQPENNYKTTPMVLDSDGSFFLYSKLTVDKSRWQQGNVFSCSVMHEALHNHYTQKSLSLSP
light: B1 light
notes: as for B2
B7: M103205H795-MY047/M103202L889-SK1 (antibody, human IgG1, kappa)
heavy: not shown
light: B1 light
notes: as for B2

Biological target: T1, cynomolgus monkey FcγRIIa2 …
Assay: SPR (Biacore); KD of SG1 / KD of variant;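 further: relative to parent M103205H795-SG1 carrying the SG1 human heavy chain constant region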
Method: (§1) The kinetic analysis of interactions between these antibodies and FcγR was carried out using BIACORE® T200 or BIACORE® 4000 (GE Healthcare). HBS-EP+ (GE Healthcare) was used as the running buffer, and the measurement temperature was set to 25° C. A chip produced by immobilizing Protein A. Protein A/G or mouse anti-human IgG kappa light chain (BD Biosciences) onto a Series S Sensor Chip CM4 or CM5 (GE Healthcare) by the amine-coupling method was used. […] After the measurement, the antibody captured on the chip was washed off by allowing reaction with 10 mM glycine-HCl, pH1.5 and 25 mM NaOH so that the chip was regenerated and used repeatedly. The sensorgrams obtained as measurement results were analyzed by the 1:1 Langmuir binding model using the BIACORE® Evaluation Software to calculate the binding rate constant ka (L/mol/s) and dissociation rate constant kd (l/s), and the dissociation constant KD (mol/L) was calculated from these values. […] Regarding such interactions, KD values were calculated using the following 1:1 binding model described in BIACORE® T100 Software Handbook BR1006-48 Edition AE.
(§2) The behavior of interacting molecules according to the 1:1 binding model on BIACORE® can be described by Equation 1: Req=C·R max/(KD+C)+RI, wherein, Req is a plot of steady-state binding levels to analyte concentration. C is concentration, RI is bulk refractive index contribution in the sample, and Rmax is analyte binding capacity of the surface. When this equation is rearranged, KD can be expressed as Equation 2: KD=C·Rmax/(Req−RI)−C. KD can be calculated by substituting the values of Rmax, RI, and C into Equation 1 or Equation 2. From the current measurement conditions, RI=0, C=2 μmol/L can be used.

KD fold (SG1 = 1) [fold] | Binder
1 | B1
2.2 | B2
1.1 | B3
1.2 | B4
1.4 | B5
3 | B6
1.5 | B7

Biological target: T2, human FcγRIIaR extracellular domain, …
Assay: SPR (Biacore); KD of SG1 / KD of variant;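 further: relative to parent M103205H795-SG1 carrying the SG1 human heavy chain constant region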
Method: as §1, §2

KD fold (SG1 = 1) [fold] | Binder
1 | B1
0.1 | B2
0.4 | B3
0.7 | B4
0.1 | B5
0.4 | B6
0.5 | B7

Biological target: T3, cynomolgus monkey FcγRIIa3 …
Assay: SPR (Biacore); KD of SG1 / KD of variant;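 further: relative to parent M103205H795-SG1 carrying the SG1 human heavy chain constant region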
Method: as §1, §2

KD fold (SG1 = 1) [fold] | Binder
1 | B1
2.6 | B2
0.9 | B3
0.9 | B4
1.1 | B5
2.4 | B6
0.7 | B7

biological target: T8, human FcγRIIIaV extracellular domain, C-terminal His-tag (human, UniProt P08637 17-208); assay: SPR (Biacore); KD of SG1 / KD of variant;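 further: relative to parent M103205H795-SG1 carrying the SG1 human heavy chain constant region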
T8 construct: also called human FcgRIIIaV; FcgRIIIaV
Method: as §1, §2

T8 sequence (P08637 17-208 F176V): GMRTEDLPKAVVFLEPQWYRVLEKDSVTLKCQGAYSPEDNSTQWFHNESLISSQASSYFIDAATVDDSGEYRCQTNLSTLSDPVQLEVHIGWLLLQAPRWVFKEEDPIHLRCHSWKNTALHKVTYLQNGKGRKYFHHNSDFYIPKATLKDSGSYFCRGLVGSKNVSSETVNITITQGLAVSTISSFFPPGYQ

KD fold (SG1 = 1) [fold] | Binder
1 | B1
0.1 | B2
0.11 | B3
0.25 | B4
0.04 | B5
0.07 | B6

biological target: T4, human FcγRIIaH extracellular domain, …; assay: SPR (Biacore); KD of SG1 / KD of variant
Method: as §1, §2

KD fold (SG1 = 1) [fold] | Binder
1 | B1
0.4 | B2
0.3 | B3
0.5 | B4
0.2 | B5
0.6 | B6
0.2 | B7

Biological target: T5, cynomolgus monkey FcγRIIa1 …
Assay: SPR (Biacore); KD of SG1 / KD of variant
Method: as §1, §2

KD fold (SG1 = 1) [fold] | Binder
1 | B1
1.2 | B2
0.7 | B3
0.7 | B4
1.1 | B5
2.3 | B6
0.7 | B7

Biological target: T6, cynomolgus monkey FcγRIIb extracellular …
Assay: SPR (Biacore); KD of SG1 / KD of variant
Method: as §1, §2

KD fold (SG1 = 1) [fold] | Binder
1 | B1
2.1 | B2
0.9 | B3
3.3 | B4
1 | B5
2 | B6
0.7 | B7

Biological target: T7, cynomolgus monkey FcγRIIIaS …
Assay: SPR (Biacore); KD of SG1 / KD of variant
Method: as §1, §2

KD fold (SG1 = 1) [fold] | Binder
1 | B1
0.08 | B2
0.17 | B3
0.21 | B4
0.05 | B5
0.07 | B6
0.05 | B7

Biological target: T7, cynomolgus monkey FcγRIIIaS …
Assay: SPR (Biacore), antibody captured, FcgR analyte

Kd [nM] | Binder
360 | B1
4600 | B2
2100 | B3
1700 | B4
1200 | B5
54 | B6
7800 | B7
